These results are taken from PMC7521651, “Intracerebroventricular enzyme replacement therapy with β-galactosidase reverses brain pathologies due to GM1 gangliosidosis in mice” (The Journal of Biological Chemistry, 2019).

As a reminder, the Kd is the constant that tells how readily two partners part at equilibrium. What is called stoichiometry N is the number of molecules, sites or subunits per partner or assembly.

Data set [1] concerns the molecule itself. Description: AUC; sedimentation equilibrium, 12,000 and 14,000 rpm, 25 °C, 20 mM sodium phosphate pH 7.4, 150 mM NaCl, 3 mM KCl; monomer-dimer equilibrium model (SEDPHAT); dimer to monomers.
Data set [2] concerns the molecule itself. Description: AUC; sedimentation equilibrium, 12,000 and 14,000 rpm, 20 mM sodium acetate pH 5, 150 mM NaCl, 3 mM KCl; dimer to monomers, limit calculated from detection of 10% monomer.

B1: recombinant human β-gal (rhβ-gal) (enzyme)
chain: QRMFEIDYSRDSFLKDGQPFRYISGSIHYSRVPRFYWKDRLLKMKMAGLNAIQTYVPWNFHEPWPGQYQFSEDHDVEYFLRLAHELGLLVILRPGPYICAEWEMGGLPAWLLEKESILLRSSDPDYLAAVDKWLGVLLPKMKPLLYQNGGPVITVQVENEYGSYFACDFDYLRFLQKRFRHHLGDDVVLFTTDGAHKTFLKCGALQGLYTTVDFGTGSNITDAFLSQRKCEPKGPLINSEFYTGWLDHWGQPHSTIKTEAVASSLYDILARGASVNLYMFIGGTNFAYWNGANSPYAAQPTSYDYDAPLSEAGDLTEKYFALRNIIQKFEKVPEGPIPPSTPKFAYGKVTLEKLKTVGAALDILCPSGPIKSLYPLTFIQVKQHYGFVLYRTTLPQDCSNPAPLSSPLNGVHDRAYVAVDGIPQGVLERNNVITLNITGKAGATLDLLVENMGRVNYGAYINDFKGLVSNLTLSSNILTDWTIFPLDTEDAVRSHLGGWGHRDSGHHDEAWAHNSSNYTLPAFYMGNFSIPSGIPDLPQDTFIQFPGWTKGQVWINGFNLGRYWPARGPQLTLFVPQHILMTSAPNTITVLELEWAPCSSDDPELCAVTFVDRPVIGSSVTYDHPSKPVEKRLMPPPPQKNKDSWLDHV
modifications: N-linked glycans; about 9% of the total glycan composition is bisphosphorylated oligomannose (BPM7)
notes: human lysosomal β-galactosidase (GLB1), secreted from CHO cells as the precursor, nonlysosomal enzyme (not the lysosomally processed mature form); No tag is mentioned; PDB 3THC is another preparation, treated by limited proteolysis, with residues 648-677 not determined; also called β-galactosidase; lysosomal β-gal
Regarding B1, the Kd in data set [1] was 0.243 µM; in data set [2], at most 0.002 µM. Also, the “stoichiometry N” value in data set [2] was 2.
